Test results from paper PMC6753178.
Where two headings read alike, the source gives them in different places.

What was measured:
CCR7 A118S (human) = CCR7 A118S (human) (UniProt P32248)
CCR7 E193A (human) = CCR7 E193A (human) (UniProt P32248)
CCR7 E205A (human) = CCR7 E205A (human) (UniProt P32248)
CCR7 F107A (human) = CCR7 F107A (human) (UniProt P32248)
CCR7 F133A (human) = CCR7 F133A (human) (UniProt P32248)
CCR7 K137A (human) = CCR7 K137A (human) (UniProt P32248)
CCR7 K50A (human) = CCR7 K50A (human) (UniProt P32248)
CCR7 K57A (human) = CCR7 K57A (human) (UniProt P32248)
CCR7 L61A (human) [1] = target: CCR7 L61A (human) (UniProt P32248)
CCR7 N305A (human) = CCR7 N305A (human) (UniProt P32248)
CCR7 R209A (human) [2] = target: CCR7 R209A (human) (UniProt P32248)
CCR7 R54A (human) [3] = target: CCR7 R54A (human) (UniProt P32248)
CCR7 S117A (human) = CCR7 S117A (human) (UniProt P32248)
CCR7 W114A (human) [4] = target: CCR7 W114A (human) (UniProt P32248)
CCR7 Y308A (human) = CCR7 Y308A (human) (UniProt P32248)
CCR7 Y65A (human) = CCR7 Y65A (human) (UniProt P32248)
CCR7 L61A (human) [5] = target: CCR7 L61A (human) (UniProt P32248); remark: listed apart in the source
CCR7 R209A (human) [6] = target: CCR7 R209A (human) (UniProt P32248); remark: listed apart in the source
CCR7 R54A (human) [7] = target: CCR7 R54A (human) (UniProt P32248); remark: listed apart in the source
CCR7 W114A (human) [8] = target: CCR7 W114A (human) (UniProt P32248); remark: listed apart in the source
[9] = target: human CCR7 wild type (human) (UniProt P32248)
[10] = target: human CCR7 wild type (human) (UniProt P32248); remark: listed apart in the source
[11] = target: human CCR7 wild type (human) (UniProt P32248); remark: listed apart in the source
CCR7 R209A (human) [12] = target: CCR7 R209A (human) (UniProt P32248); remark: listed apart in the source

## human chemokine CCL19 (from UniProt Q99731 22-98) (ligand)
CCR7 A118S (human)
  G protein signaling (BRET cAMP Camyel sensor, transfected CHO-k1 cells): -logEC50 (M) of CCL19: 9.7 -logEC50 (M)
  G protein signaling (BRET cAMP Camyel sensor, transfected CHO-k1 cells): FMut, fold change of CCL19 potency compared to WT CCR7: 2 fold
CCR7 E193A (human)
  G protein signaling (BRET cAMP Camyel sensor, transfected CHO-k1 cells): -logEC50 (M) of CCL19: 9.6 -logEC50 (M)
  G protein signaling (BRET cAMP Camyel sensor, transfected CHO-k1 cells): FMut, fold change of CCL19 potency compared to WT CCR7: 3 fold
CCR7 E205A (human)
  G protein signaling (BRET cAMP Camyel sensor, transfected CHO-k1 cells): -logEC50 (M) of CCL19: 9.2 -logEC50 (M)
  G protein signaling (BRET cAMP Camyel sensor, transfected CHO-k1 cells): FMut, fold change of CCL19 potency compared to WT CCR7: 3 fold
CCR7 F107A (human)
  G protein signaling (BRET cAMP Camyel sensor, transfected CHO-k1 cells): -logEC50 (M) of CCL19: 8.9 -logEC50 (M)
  G protein signaling (BRET cAMP Camyel sensor, transfected CHO-k1 cells): FMut, fold change of CCL19 potency compared to WT CCR7: 2 fold
CCR7 F133A (human)
  G protein signaling (BRET cAMP Camyel sensor, transfected CHO-k1 cells): -logEC50 (M) of CCL19: 8.7 -logEC50 (M)
  G protein signaling (BRET cAMP Camyel sensor, transfected CHO-k1 cells): FMut, fold change of CCL19 potency compared to WT CCR7: 1 fold
CCR7 K137A (human)
  G protein signaling (BRET cAMP Camyel sensor, transfected CHO-k1 cells): -logEC50 (M) of CCL19: 9.2 -logEC50 (M)
  G protein signaling (BRET cAMP Camyel sensor, transfected CHO-k1 cells): FMut, fold change of CCL19 potency compared to WT CCR7: 3 fold
CCR7 K50A (human)
  G protein signaling (BRET cAMP Camyel sensor, transfected CHO-k1 cells): -logEC50 (M) of CCL19: 8.5 -logEC50 (M)
  G protein signaling (BRET cAMP Camyel sensor, transfected CHO-k1 cells): FMut, fold change of CCL19 potency compared to WT CCR7: 13 fold
CCR7 K57A (human)
  G protein signaling (BRET cAMP Camyel sensor, transfected CHO-k1 cells): -logEC50 (M) of CCL19: 9.2 -logEC50 (M)
  G protein signaling (BRET cAMP Camyel sensor, transfected CHO-k1 cells): FMut, fold change of CCL19 potency compared to WT CCR7: 2 fold
CCR7 L61A (human) [1]
  G protein signaling (BRET cAMP Camyel sensor, transfected CHO-k1 cells): -logEC50 (M) of CCL19: 8.9 -logEC50 (M)
  G protein signaling (BRET cAMP Camyel sensor, transfected CHO-k1 cells): FMut, fold change of CCL19 potency compared to WT CCR7: 3 fold
CCR7 N305A (human)
  G protein signaling (BRET cAMP Camyel sensor, transfected CHO-k1 cells): -logEC50 (M) of CCL19: 8.6 -logEC50 (M)
  G protein signaling (BRET cAMP Camyel sensor, transfected CHO-k1 cells): FMut, fold change of CCL19 potency compared to WT CCR7: 4 fold
CCR7 R209A (human) [2]
  G protein signaling (BRET cAMP Camyel sensor, transfected CHO-k1 cells): -logEC50 (M) of CCL19: 8.5 -logEC50 (M)
  G protein signaling (BRET cAMP Camyel sensor, transfected CHO-k1 cells): FMut, fold change of CCL19 potency compared to WT CCR7: 8 fold
CCR7 R54A (human) [3]
  G protein signaling (BRET cAMP Camyel sensor, transfected CHO-k1 cells): -logEC50 (M) of CCL19: 7.1 -logEC50 (M)
  G protein signaling (BRET cAMP Camyel sensor, transfected CHO-k1 cells): FMut, fold change of CCL19 potency compared to WT CCR7: 100 fold
CCR7 S117A (human)
  G protein signaling (BRET cAMP Camyel sensor, transfected CHO-k1 cells): -logEC50 (M) of CCL19: 9.5 -logEC50 (M)
  G protein signaling (BRET cAMP Camyel sensor, transfected CHO-k1 cells): FMut, fold change of CCL19 potency compared to WT CCR7: 1 fold
CCR7 W114A (human) [4]
  G protein signaling (BRET cAMP Camyel sensor, transfected CHO-k1 cells): -logEC50 (M) of CCL19: 8 -logEC50 (M)
  G protein signaling (BRET cAMP Camyel sensor, transfected CHO-k1 cells): FMut, fold change of CCL19 potency compared to WT CCR7: 13 fold
CCR7 Y308A (human)
  G protein signaling (BRET cAMP Camyel sensor, transfected CHO-k1 cells): -logEC50 (M) of CCL19: 9.1 -logEC50 (M)
  G protein signaling (BRET cAMP Camyel sensor, transfected CHO-k1 cells): FMut, fold change of CCL19 potency compared to WT CCR7: 2 fold
CCR7 Y65A (human)
  G protein signaling (BRET cAMP Camyel sensor, transfected CHO-k1 cells): -logEC50 (M) of CCL19: 9 -logEC50 (M)
  G protein signaling (BRET cAMP Camyel sensor, transfected CHO-k1 cells): FMut, fold change of CCL19 potency compared to WT CCR7: 2 fold
CCR7 L61A (human) [5]
  Transwell migration of stably transfected 300–19 pre-B cells: % specific migration at 10 nM CCL19: 7.5%
CCR7 R209A (human) [6]
  Transwell migration of stably transfected 300–19 pre-B cells: % specific migration at 10 nM CCL19: 5%
CCR7 R54A (human) [7]
  Transwell migration of stably transfected 300–19 pre-B cells: % specific migration at 10 nM CCL19: -0.1%
CCR7 W114A (human) [8]
  Transwell migration of stably transfected 300–19 pre-B cells: % specific migration at 10 nM CCL19: 1%
[9]
  Transwell migration of stably transfected 300–19 pre-B cells: % specific migration at 10 nM CCL19: 11.6%
[10]
  G protein signaling (BRET cAMP Camyel sensor, CHO-k1 cells transfected with CCR7): logEC50: -9.4 logEC50 (M)
  β-arrestin-2 recruitment (bystander BRET, CHO-k1 cells transfected with CCR7): logEC50: -7.9 logEC50 (M)
[11]
  G protein signaling (BRET cAMP Camyel sensor, CHO-k1 cells transfected with CCR7): signal at 100 nM chemokine, normalized to CCL19: 92%
CCR7 R209A (human) [12]
  Transwell migration of stably transfected 300–19 pre-B cells: activity at 10 nM CCL19 relative to WT CCR7: 42 % of WT

## human chemokine CCL21 (from UniProt O00585 24-134) (ligand)
CCR7 A118S (human)
  G protein signaling (BRET cAMP Camyel sensor, transfected CHO-k1 cells): efficacy at 100 nM CCL21, normalized to WT CCR7: 67 % of WT
CCR7 E193A (human)
  G protein signaling (BRET cAMP Camyel sensor, transfected CHO-k1 cells): efficacy at 100 nM CCL21, normalized to WT CCR7: 45 % of WT
CCR7 E205A (human)
  G protein signaling (BRET cAMP Camyel sensor, transfected CHO-k1 cells): efficacy at 100 nM CCL21, normalized to WT CCR7: 48 % of WT
CCR7 F107A (human)
  G protein signaling (BRET cAMP Camyel sensor, transfected CHO-k1 cells): efficacy at 100 nM CCL21, normalized to WT CCR7: 76 % of WT
CCR7 F133A (human)
  G protein signaling (BRET cAMP Camyel sensor, transfected CHO-k1 cells): efficacy at 100 nM CCL21, normalized to WT CCR7: 27 % of WT
CCR7 K137A (human)
  G protein signaling (BRET cAMP Camyel sensor, transfected CHO-k1 cells): efficacy at 100 nM CCL21, normalized to WT CCR7: 43 % of WT
CCR7 K57A (human)
  G protein signaling (BRET cAMP Camyel sensor, transfected CHO-k1 cells): efficacy at 100 nM CCL21, normalized to WT CCR7: 99 % of WT
CCR7 L61A (human) [1]
  G protein signaling (BRET cAMP Camyel sensor, transfected CHO-k1 cells): efficacy at 100 nM CCL21, normalized to WT CCR7: 44 % of WT
CCR7 N305A (human)
  G protein signaling (BRET cAMP Camyel sensor, transfected CHO-k1 cells): efficacy at 100 nM CCL21, normalized to WT CCR7: 53 % of WT
CCR7 R209A (human) [2]
  G protein signaling (BRET cAMP Camyel sensor, transfected CHO-k1 cells): efficacy at 100 nM CCL21, normalized to WT CCR7: 132 % of WT
CCR7 S117A (human)
  G protein signaling (BRET cAMP Camyel sensor, transfected CHO-k1 cells): efficacy at 100 nM CCL21, normalized to WT CCR7: 68 % of WT
CCR7 W114A (human) [4]
  G protein signaling (BRET cAMP Camyel sensor, transfected CHO-k1 cells): efficacy at 100 nM CCL21, normalized to WT CCR7: 32 % of WT
CCR7 Y308A (human)
  G protein signaling (BRET cAMP Camyel sensor, transfected CHO-k1 cells): efficacy at 100 nM CCL21, normalized to WT CCR7: 38 % of WT
CCR7 Y65A (human)
  G protein signaling (BRET cAMP Camyel sensor, transfected CHO-k1 cells): efficacy at 100 nM CCL21, normalized to WT CCR7: 44 % of WT
CCR7 L61A (human) [5]
  Transwell migration of stably transfected 300–19 pre-B cells: % specific migration at 10 nM CCL21: 4%
CCR7 R209A (human) [6]
  Transwell migration of stably transfected 300–19 pre-B cells: % specific migration at 10 nM CCL21: 10.6%
CCR7 R54A (human) [7]
  Transwell migration of stably transfected 300–19 pre-B cells: % specific migration at 10 nM CCL21: 0.3%
CCR7 W114A (human) [8]
  Transwell migration of stably transfected 300–19 pre-B cells: % specific migration at 10 nM CCL21: 0.6%
[9]
  Transwell migration of stably transfected 300–19 pre-B cells: % specific migration at 10 nM CCL21: 5.1%
CCR7 R209A (human) [12]
  Transwell migration of stably transfected 300–19 pre-B cells: activity at 10 nM CCL21 relative to WT CCR7: 2.5 fold

B1: CCL19^CCL21N-term chimera (ligand)
chain: SDGGAQDCCLKYSQRKIPGYIVRNFHYLLIKDGCRVPAVVFTTLRGRQLCAPPDQPWVERIIQRLQRTSAKMKRRSS
[11]
  G protein signaling (BRET cAMP Camyel sensor, CHO-k1 cells transfected with CCR7): logEC50: -8.9 logEC50 (M)
  G protein signaling (BRET cAMP Camyel sensor, CHO-k1 cells transfected with CCR7): signal at 100 nM chemokine, normalized to CCL19: 90%
